Results: patent US20250313625A1 (ELPISCIENCE SUZHOU BIOPHARMA, published 2025)
Positions count from the first letter of the chain named.

T1: human LAG3, full length, stably expressed on cells (human, UniProt P18627 23-525)
T1 construct: whole, on cells; also called CHOK1-human LAG3
T1 sequence (looked up): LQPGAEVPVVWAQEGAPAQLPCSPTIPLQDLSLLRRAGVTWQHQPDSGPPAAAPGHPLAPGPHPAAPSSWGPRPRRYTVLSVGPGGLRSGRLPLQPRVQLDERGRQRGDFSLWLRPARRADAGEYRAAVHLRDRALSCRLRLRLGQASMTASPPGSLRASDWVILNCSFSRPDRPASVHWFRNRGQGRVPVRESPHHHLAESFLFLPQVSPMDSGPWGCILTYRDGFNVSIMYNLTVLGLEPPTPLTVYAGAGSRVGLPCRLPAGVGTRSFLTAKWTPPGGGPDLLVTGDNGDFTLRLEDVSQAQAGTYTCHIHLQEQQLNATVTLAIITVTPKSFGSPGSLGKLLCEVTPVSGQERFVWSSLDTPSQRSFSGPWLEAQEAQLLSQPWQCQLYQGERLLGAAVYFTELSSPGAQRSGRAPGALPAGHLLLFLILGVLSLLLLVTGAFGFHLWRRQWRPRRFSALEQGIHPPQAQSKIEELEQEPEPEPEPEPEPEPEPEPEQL

T2: hFc tagged human LAG3 ECD recombinant protein (human, UniProt P18627 23-450)
T2 construct: range 23-450; also called biotin labelled hFc tagged human LAG3 ECD; not shown: human IgG Fc tag
T2 sequence (looked up): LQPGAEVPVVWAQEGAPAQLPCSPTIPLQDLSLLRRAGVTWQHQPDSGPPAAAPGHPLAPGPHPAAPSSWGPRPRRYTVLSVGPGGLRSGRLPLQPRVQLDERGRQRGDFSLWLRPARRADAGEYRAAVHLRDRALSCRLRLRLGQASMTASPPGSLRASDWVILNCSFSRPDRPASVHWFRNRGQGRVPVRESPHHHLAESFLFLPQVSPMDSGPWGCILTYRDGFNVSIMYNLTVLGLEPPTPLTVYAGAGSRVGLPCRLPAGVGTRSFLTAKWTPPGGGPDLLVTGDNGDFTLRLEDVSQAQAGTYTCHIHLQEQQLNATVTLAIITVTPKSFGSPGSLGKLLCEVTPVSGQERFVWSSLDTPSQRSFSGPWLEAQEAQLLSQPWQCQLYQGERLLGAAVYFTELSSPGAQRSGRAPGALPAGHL

T3: mouse LAG3, full length, stably expressed on CHOK1 cells (mouse, UniProt Q61790 24-521)
T3 construct: whole, on cells
T3 sequence (looked up): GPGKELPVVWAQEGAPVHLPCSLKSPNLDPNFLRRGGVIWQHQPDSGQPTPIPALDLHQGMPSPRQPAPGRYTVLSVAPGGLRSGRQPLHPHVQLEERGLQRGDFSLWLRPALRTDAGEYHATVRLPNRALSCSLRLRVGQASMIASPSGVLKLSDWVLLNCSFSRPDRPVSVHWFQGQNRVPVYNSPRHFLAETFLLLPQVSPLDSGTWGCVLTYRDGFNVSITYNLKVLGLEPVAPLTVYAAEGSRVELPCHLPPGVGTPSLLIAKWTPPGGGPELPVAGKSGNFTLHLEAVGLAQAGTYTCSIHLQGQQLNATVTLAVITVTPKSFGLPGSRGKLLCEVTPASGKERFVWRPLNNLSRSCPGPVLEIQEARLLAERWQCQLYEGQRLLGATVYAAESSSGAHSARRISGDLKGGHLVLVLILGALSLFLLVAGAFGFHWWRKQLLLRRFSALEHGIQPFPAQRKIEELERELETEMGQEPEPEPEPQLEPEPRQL

T4: hFc tagged human LAG3 D1-D2 recombinant protein (human, UniProt P18627 23-261)
T4 construct: range 23-261; generated by Chempartner; also called hLAG3 D1-D2; not shown: human IgG Fc tag
T4 sequence (looked up): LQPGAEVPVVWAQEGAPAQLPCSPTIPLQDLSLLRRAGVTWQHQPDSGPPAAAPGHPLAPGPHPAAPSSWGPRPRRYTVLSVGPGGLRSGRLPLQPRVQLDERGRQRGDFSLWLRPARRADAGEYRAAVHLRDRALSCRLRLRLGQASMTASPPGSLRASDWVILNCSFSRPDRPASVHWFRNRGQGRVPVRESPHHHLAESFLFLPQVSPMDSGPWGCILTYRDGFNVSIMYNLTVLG

B1: Antibody 029 (antibody, V domains shown)
VH: DVKLVESGEDLVKPGGSLKLSCAASGFTFSSYAMSWVRQTPEKRLEWVAYVTSGGDYIYYADTVKGRFTISRDDVRNTLYLQMSSLKSEDTAMYYCTRVAYDYEWYFDVWGTGAPVTVSS
VL: DIVMTQSHKFMSTSVGDRVSITCKASQDVTTAVAWYQQKPGQSPKLLIYSASYRYTGVSDRFTGSGSGTDFTFTISSVQAEDLALYYCQQHDSSPWTFGGGTKLEIK
notes: mouse hybridoma antibody
B2: Antibody 027 (antibody, V domains shown)
VH: EVKILQSGGGLVQPGGSLKLSCAASGIDFSRYWMSWVRRTPGKGLEWIGEINPDSSTINYAPSLKDKFIISRDNAKNTLYLQMSKVRSEDTALYYCARLGIIPTYHYGSSGYYYAMDYWGQGTSVTVSS
VL: DVLMTQTPLSLPVSLGDRASISCRSSQTIVHGNGHTSLEWYLQKPGQSPQLLIYKVSNRFSGVPDRFSASGSGTDFTLTISRVEAEDLGVYYCFQVSHVPYTFGGGTKLEIK
notes: mouse hybridoma antibody
B3: Antibody 033 (antibody, V domains shown)
VH: EVQLQQSGAELVRPGASVKLSCTASDFNIKDDYIHWVKQRPEQGLEWIGWIDLENGDTEYASKFQGKATITADTSSNTAYLQLSSLTSEDTAVYYCTTKGSHWGQGTLVTVSA
VL: DVVMTQIPLSLPVSLGDQASISCRSSQSLVYSNGNTYLNWYLQKPGQSPKLLIHKVSNRFSGVPDRFSGSGSGTDFTLKISRVEAEDLGVYFCSQSTHVPYTFGGGTKLEIR
notes: mouse hybridoma antibody
B4: Antibody 038 (antibody, V domains shown)
VH: DVQVQESGPGLVKPSQSLSLTCSVTGYSITSGYYWNWIRQFPGNKLEWMGYISYDGSNEYNLSLKNRLSITRDTSKNQFFLKLNSVTTEDTATYYCAREEDGYYGGMDYWGQGTSVTVSS
VL: DIVMTQSHKFMSASVGVRVSITCRASQDVDTAVAWYQQKPGQSPKLLIYWASTRHTGVPDRFTGSGSGTDFTLTISNVQSEDLADYFCQQYSSYPYTFGGGTKLEIK
notes: mouse hybridoma antibody
B5: Antibody 035 (antibody, V domains shown)
VH: QVQLQQSGAELARPGASVKLSCKASGYSFTSYGINWVKQRTGQGLEWIGEIYPRSGNTYYNEKFKDKATLTADKSSSTAYMELRSLTSEDSAVYFCARGGTYDGYYYAMDFWGQGTSVTVSS
VL: DIVLTQSPASLAVSLGQRATISCRASESVDNFGSSFLHWYQQKPGQAPKLLIYRASNLESGIPARFSGSGSRTDFTLTINPVETDDVATYYCQQVNKDPRTFGGGTKLEIK
notes: mouse hybridoma antibody
B6: Antibody 057 (antibody, V domains shown)
VH: B5 VH with Y27F, F64L, D66G, K67E, K74R, F111Y
VL: B5 VL with D1N, L37M, S67G, R72G, N80D
notes: mouse hybridoma antibody
B7: Antibody 047 (antibody, V domains shown)
VH: B5 VH with I34V, K63R, K65G, L83I, F111Y
VL: B5 VL with L37M
notes: mouse hybridoma antibody

The binders below were run against T1, human LAG3, full length, stably … (assay: FACS on 293F-human LAG3 cells).
Procedure: (§1) Briefly the antibodies were incubated with 2×10⁵ target cells at 4° C. for 1 hour. After washing, fluorescence labeled anti-mouse IgG 2nd antibody (Life Technologies) was added and incubated at 4° C. for 1 hour. Geometric median fluorescence intensity (MFI) was detected and EC₅₀ was calculated using GraphPad Prism9.0.

| EC50 [nM] | Binder |
| --- | --- |
| 4.58 | B1 |
| 2.38 | B2 |
| 2.33 | B3 |
| 1.12 | B4 |
| 0.66 | B5 |
| 1.04 | B6 |
| 1.14 | B7 |

What follows are binders tested against T2, hFc tagged human LAG3 ECD recombinant … (assay: competitive FACS: hFc-LAG3 ECD binding to Raji cells (MHC II)).
Procedure: Competitive FACS assay was used to determine whether the purified hybridoma antibodies can block LAG3 and MHC II interaction. […] After washing, dye labeled anti-human Fc 2nd antibody (Sigma) was added and incubated at 37° C. for 1 hour. Fluorescence intensity was detected.

| IC50 [nM] | TOP blocking (%) | Binder |
| --- | --- | --- |
| 4.6 | 90.7 | B1 |
| 5.4 | 97.2 | B2 |
| 4.8 | 98.8 | B3 |
| 4.2 | 100 | B4 |
| 5 | 99.2 | B5 |
| 5.1 | 87.6 | B6 |
| 7.7 | 82.7 | B7 |

What follows are binders tested against T2, hFc tagged human LAG3 ECD recombinant … (assay: competitive ELISA: excess competitor, biotin hFc-LAG3 ECD, coated BMS-986016).
Procedure: (§2) Competitive ELISA assay was used for epitope binning of the purified hybridoma antibodies. […] After washing, HRP labeled anti-streptavidin (SA) 2nd antibody (Sigma) was added and incubated at 37° C. for 1 hour. Then, 100 μl/well of TMB solution (Biotechnology) was added. After incubation for 15 minutes at room temperature, the reaction was stopped by the addition of 50 μl of 1N HCl. OD 450 nm was read. Competition ratio was calculated.

| % competition [%] | Binder |
| --- | --- |
| 20.3 | B1 |
| 7.2 | B2 |
| 92.5 | B3 |
| 33.5 | B4 |
| 21.7 | B5 |
| 29.3 | B6 |
| 8.9 | B7 |

Each binder was assayed against T3, mouse LAG3, full length, stably … (assay: FACS on CHOK1 cells expressing mouse LAG3).
Procedure: as §1

| binding result | Binder |
| --- | --- |
| no binding | B1 |
| no binding | B2 |
| no binding | B3 |
| no binding | B4 |
| no binding | B5 |
| no binding | B6 |
| no binding | B7 |

The binders below were run against T5, cyno LAG3, full length, stably expressed on 293F cells (cyno) (assay: FACS on 293F-cyno LAG3 cells, 20 nM antibody).
T5 construct: whole, on cells
Procedure: as §1

| MFI at 20 nM [MFI] | Binder |
| --- | --- |
| 35.6 | B1 |
| 132 | B2 |
| 83.4 | B3 |
| 142 | B4 |
| 155 | B5 |
| 83.4 | B6 |
| 129 | B7 |

What follows are binders tested against T2, hFc tagged human LAG3 ECD recombinant … (assay: competitive ELISA: excess competitor, biotin hFc-LAG3 ECD, coated BAP-050).
Procedure: as §2

| % competition [%] | Binder |
| --- | --- |
| 23.5 | B1 |
| 85.1 | B2 |
| 3.8 | B3 |
| 6.4 | B4 |
| 91.9 | B5 |
| 87.7 | B6 |
| 87.4 | B7 |

These binders were tested against T4, hFc tagged human LAG3 D1-D2 recombinant … (assay: ELISA, coated hFc-hLAG3 D1-D2).

| EC50 [nM] | Binder |
| --- | --- |
| 0.06 | B1 |
| 0.05 | B2 |
| 0.07 | B3 |
| 0.07 | B4 |
| 0.06 | B5 |
| 0.02 | B6 |
| 0.04 | B7 |
